PMC12087451, “The SmWRKY32-SmbHLH65/SmbHLH85 regulatory module mediates tanshinone biosynthesis in Salvia miltiorrhiza”

How the values were obtained:
GST-SmWRKY32 [1] = biological target: T1, GST-SmWRKY32 (Salvia miltiorrhiza, UniProt A0A0D5YAE6 1-129); assay: EMSA; Chemiluminescent EMSA kit (Beyotime GS009) EMSA/Gel-Shift binding buffer, 25 C, 10 min then 20 min with biotin probe, 6% PAGE; salt and pH not stated; conditions: protein: recombinant; tags: N-terminal GST (pGEX-4T-1); label: biotin (labelled probe); blunt
GST-SmWRKY32 [2] = biological target: T1, GST-SmWRKY32; assay: competition; 50-fold unlabelled mutant competitor; Chemiluminescent EMSA kit (Beyotime GS009) EMSA/Gel-Shift binding buffer, 25 C, 10 min then 20 min with biotin probe, 6% PAGE; salt and pH not stated; conditions: protein: recombinant; tags: N-terminal GST (pGEX-4T-1); label: none; blunt

T1 sequence (A0A0D5YAE6 entry or part of it): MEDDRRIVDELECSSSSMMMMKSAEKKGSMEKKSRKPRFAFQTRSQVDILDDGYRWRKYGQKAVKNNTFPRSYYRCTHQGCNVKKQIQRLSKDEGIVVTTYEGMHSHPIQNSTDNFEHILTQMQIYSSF

B1: pSmbHLH65 W-box probe (3 copies) (dsDNA)
DNA 1: TTCATTGACCAAATTTCATTGACCAAATTTCATTGACCAAAT
DNA 2: ATTTGGTCAATGAAATTTGGTCAATGAAATTTGGTCAATGAA
binding result (GST-SmWRKY32 [1]): binds

B2: pSmbHLH65-M cold probe (dsDNA)
DNA 1: TTCAAAAAAAAAATTTCAAAAAAAAAATTTCAAAAAAAAAAT
DNA 2: ATTTTTTTTTTGAAATTTTTTTTTTGAAATTTTTTTTTTGAA
binding result (GST-SmWRKY32 [2]): no binding
